First the molecules themselves.
B1: Rpt6 (natural protein)
chain: MTAAVTSSNIVLETHESGIKPYFEQKIQETELKIRSKTENVRRLEAQRNALNDKVRFIKDELRLLQEPGSYVGEVIKIVSDKKVLVKVQPEGKYIVDVAKDINVKDLKASQRVCLRSDSYMLHKVLENKADPLVSLMMVEKVPDSTYDMVGGLTKQIKEIKEVIELPVKHPELFESLGIAQPKGVILYGPPGTGKTLLARAVAHHTDCKFIRVSGAELVQKYIGEGSRMVRELFVMAREHAPSIIFMDEIDSIGSTRVEGSGGGDSEVQRTMLELLNQLDGFETSKNIKIIMATNRLDILDPALLRPGRIDRKIEFPPPSVAARAEILRIHSRKMNLTRGINLRKVAEKMNGCSGADVKGVCTEAGMYALRERRIHVTQEDFELAVGKVMNKNQETAISVAKLFK

The target of one assay is T1, Rpn2 (S. cerevisiae, UniProt P32565 1-945).
T1 sequence: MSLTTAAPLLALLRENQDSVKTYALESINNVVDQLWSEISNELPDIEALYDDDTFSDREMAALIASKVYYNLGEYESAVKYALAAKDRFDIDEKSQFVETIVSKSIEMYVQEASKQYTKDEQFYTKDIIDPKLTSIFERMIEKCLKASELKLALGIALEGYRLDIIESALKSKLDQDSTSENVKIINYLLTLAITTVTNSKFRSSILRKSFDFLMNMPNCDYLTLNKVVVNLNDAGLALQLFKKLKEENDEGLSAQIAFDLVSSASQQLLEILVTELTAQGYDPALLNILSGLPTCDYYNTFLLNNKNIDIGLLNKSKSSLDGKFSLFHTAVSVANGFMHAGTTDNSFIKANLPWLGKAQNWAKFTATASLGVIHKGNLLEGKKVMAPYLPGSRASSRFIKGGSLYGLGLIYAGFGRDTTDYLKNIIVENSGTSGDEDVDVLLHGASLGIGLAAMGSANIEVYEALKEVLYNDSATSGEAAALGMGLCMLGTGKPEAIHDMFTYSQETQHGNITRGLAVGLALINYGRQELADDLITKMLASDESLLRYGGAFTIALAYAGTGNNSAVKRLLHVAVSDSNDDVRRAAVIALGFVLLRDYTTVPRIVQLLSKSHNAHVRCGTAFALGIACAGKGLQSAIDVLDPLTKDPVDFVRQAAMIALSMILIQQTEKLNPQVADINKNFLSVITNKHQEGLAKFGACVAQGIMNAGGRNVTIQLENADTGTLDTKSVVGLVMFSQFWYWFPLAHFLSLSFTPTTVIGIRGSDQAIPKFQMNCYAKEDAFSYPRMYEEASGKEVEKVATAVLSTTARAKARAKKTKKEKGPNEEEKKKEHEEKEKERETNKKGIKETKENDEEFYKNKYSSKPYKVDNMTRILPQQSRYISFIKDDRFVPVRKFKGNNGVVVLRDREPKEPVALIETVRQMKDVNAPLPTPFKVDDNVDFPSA
Nature of the assay: cryo-EM structure.

The target of another assay is T2, Rpn7 (S. cerevisiae, UniProt Q06103 1-429).
T2 sequence: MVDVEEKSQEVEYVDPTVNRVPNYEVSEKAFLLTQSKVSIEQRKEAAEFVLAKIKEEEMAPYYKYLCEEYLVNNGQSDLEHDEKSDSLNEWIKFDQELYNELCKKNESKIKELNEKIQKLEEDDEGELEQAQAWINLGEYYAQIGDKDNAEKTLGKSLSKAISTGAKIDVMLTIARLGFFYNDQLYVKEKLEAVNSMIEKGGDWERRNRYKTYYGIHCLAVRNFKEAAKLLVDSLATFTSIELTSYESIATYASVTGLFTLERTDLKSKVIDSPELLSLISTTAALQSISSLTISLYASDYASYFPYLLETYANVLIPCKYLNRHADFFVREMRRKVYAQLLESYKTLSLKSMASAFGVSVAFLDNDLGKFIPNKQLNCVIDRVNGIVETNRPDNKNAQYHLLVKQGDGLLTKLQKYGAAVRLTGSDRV
Nature of the assay: cryo-EM structure.

The target in the assay “Rpt6” is B1. Briefly: cryo-EM structure.
The next assay addresses T3, Rpt3 (S. cerevisiae, UniProt P33298 1-428).
T3 sequence: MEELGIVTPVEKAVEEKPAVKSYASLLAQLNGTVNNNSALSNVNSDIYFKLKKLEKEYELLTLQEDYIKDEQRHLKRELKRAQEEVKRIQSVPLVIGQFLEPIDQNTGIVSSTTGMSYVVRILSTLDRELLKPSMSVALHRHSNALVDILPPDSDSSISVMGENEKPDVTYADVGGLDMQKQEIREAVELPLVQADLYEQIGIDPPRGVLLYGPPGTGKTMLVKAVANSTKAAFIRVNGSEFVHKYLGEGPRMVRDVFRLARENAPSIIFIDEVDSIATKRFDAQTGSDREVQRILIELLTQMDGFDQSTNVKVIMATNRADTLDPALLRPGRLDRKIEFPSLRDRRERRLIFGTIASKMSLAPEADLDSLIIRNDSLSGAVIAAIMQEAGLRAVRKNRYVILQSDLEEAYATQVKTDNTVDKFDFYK
Briefly: cryo-EM structure.

Another assay addresses T4, Rpn9 (recombinant lid) (S. cerevisiae, UniProt Q04062 1-393).
T4 sequence: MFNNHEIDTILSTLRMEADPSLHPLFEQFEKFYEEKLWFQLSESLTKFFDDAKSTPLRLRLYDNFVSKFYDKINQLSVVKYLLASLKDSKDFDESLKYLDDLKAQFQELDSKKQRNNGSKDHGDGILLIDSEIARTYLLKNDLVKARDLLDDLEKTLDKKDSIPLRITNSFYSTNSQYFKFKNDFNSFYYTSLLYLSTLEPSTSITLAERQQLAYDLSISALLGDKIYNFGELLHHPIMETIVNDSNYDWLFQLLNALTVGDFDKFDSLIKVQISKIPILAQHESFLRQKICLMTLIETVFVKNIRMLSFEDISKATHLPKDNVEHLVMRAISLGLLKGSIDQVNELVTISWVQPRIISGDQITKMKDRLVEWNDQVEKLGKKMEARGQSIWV
Briefly: negative-stain electron microscopy, 3D reconstruction.

Another assay has as its target T5, Rpt5 (S. cerevisiae, UniProt P33297 1-434).
T5 sequence: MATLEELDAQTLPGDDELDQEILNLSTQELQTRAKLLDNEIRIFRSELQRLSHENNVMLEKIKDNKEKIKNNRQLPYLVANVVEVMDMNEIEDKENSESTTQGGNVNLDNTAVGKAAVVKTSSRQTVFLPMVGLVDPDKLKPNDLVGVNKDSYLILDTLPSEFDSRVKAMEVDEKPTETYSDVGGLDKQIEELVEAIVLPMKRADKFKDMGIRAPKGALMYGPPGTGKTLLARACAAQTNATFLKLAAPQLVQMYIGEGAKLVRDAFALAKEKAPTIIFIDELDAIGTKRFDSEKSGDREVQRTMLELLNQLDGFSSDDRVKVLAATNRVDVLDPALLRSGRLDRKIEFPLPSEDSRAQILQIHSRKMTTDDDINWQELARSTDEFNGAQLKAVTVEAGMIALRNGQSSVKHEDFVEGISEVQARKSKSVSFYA
Nature of the assay: cryo-EM structure.

In a further assay the target is T6, Rpn1 (S. cerevisiae, UniProt P38764 1-993).
T6 sequence: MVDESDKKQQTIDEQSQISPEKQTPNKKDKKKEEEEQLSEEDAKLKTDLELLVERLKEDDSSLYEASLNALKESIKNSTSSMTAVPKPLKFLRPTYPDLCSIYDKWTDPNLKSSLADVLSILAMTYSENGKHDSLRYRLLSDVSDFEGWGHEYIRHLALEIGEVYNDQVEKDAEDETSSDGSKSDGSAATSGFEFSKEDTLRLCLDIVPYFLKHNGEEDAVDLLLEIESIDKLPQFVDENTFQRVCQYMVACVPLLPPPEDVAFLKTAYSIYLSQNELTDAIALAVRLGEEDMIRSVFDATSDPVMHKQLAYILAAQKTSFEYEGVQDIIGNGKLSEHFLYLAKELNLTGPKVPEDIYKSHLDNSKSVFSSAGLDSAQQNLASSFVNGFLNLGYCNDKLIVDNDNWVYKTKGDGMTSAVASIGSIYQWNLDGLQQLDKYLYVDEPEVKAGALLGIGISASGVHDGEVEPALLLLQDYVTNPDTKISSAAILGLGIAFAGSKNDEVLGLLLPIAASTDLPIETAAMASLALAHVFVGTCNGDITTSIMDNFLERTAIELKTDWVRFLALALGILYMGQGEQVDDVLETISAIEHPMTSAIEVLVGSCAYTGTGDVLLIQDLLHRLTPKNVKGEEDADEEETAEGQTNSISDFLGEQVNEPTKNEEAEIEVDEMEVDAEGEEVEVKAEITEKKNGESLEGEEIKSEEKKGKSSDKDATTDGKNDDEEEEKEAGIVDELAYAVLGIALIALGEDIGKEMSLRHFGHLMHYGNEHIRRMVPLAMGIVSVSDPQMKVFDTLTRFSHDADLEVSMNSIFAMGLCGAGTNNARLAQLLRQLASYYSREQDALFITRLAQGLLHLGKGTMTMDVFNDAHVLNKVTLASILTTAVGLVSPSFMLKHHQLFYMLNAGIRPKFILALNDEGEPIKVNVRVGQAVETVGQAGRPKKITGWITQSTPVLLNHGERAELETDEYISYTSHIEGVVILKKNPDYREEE
Nature of the assay: electron microscopy, variance maps.

B1: the binding result with Rpn2 and with Rpn7 was “binds” each time.

B2: Rpn8 (natural protein)
chain: MSLQHEKVTIAPLVLLSALDHYERTQTKENKRCVGVILGDANSSTIRVTNSFALPFEEDEKNSDVWFLDHNYIENMNEMCKKINAKEKLIGWYHSGPKLRASDLKINELFKKYTQNNPLLLIVDVKQQGVGLPTDAYVAIEQVKDDGTSTEKTFLHLPCTIEAEEAEEIGVEHLLRDVRDQAAGGLSIRLTNQLKSLKGLQSKLKDVVEYLDKVINKELPINHTILGKLQDVFNLLPNLGTPDDDEIDVENHDRINISNNLQKALTVKTNDELMVIYISNLVRSIIAFDDLIENKIQNKKIQEQRVKDKQSKVSDDSESESGDKEATAPLIQRKNKKN
As to B2, the binding result with Rpt6 and in the assay with Rpt3 was “binds” in each case.

B3: Rpn8 (recombinant lid) (natural protein)
chain: MSLQHEKVTIAPLVLLSALDHYERTQTKENKRCVGVILGDANSSTIRVTNSFALPFEEDEKNSDVWFLDHNYIENMNEMCKKINAKEKLIGWYHSGPKLRASDLKINELFKKYTQNNPLLLIVDVKQQGVGLPTDAYVAIEQVKDDGTSTEKTFLHLPCTIEAEEAEEIGVEHLLRDVRDQAAGGLSIRLTNQLKSLKGLQSKLKDVVEYLDKVINKELPINHTILGKLQDVFNLLPNLGTPDDDEIDVENHDRINISNNLQKALTVKTNDELMVIYISNLVRSIIAFDDLIENKIQNKKIQEQRVKDKQSKVSDDSESESGDKEATAPLIQRKNKKN
B3: in the assay with Rpn9 (recombinant lid), the binding result was “binds”.

B4: 20S core subunit α6 (natural protein)
chain: MFRNNYDGDTVTFSPTGRLFQVEYALEAIKQGSVTVGLRSNTHAVLVALKRNADELSSYQKKIIKCDEHMGLSLAGLAPDARVLSNYLRQQCNYSSLVFNRKLAVERAGHLLCDKAQKNTQSYGGRPYGVGLLIIGYDKSGAHLLEFQPSGNVTELYGTAIGARSQGAKTYLERTLDTFIKIDGNPDELIKAGVEAISQSLRDESLTVDNLSIAIVGKDTPFTIYDGEAVAKYI
With B4, the binding result with Rpt5 is on record as “binds”.

B5: Ubp6 (enzyme)
chain: MSGETFEFNIRHSGKVYPITLSTDATSADLKSKAEELTQVPSARQKYMVKGGLSGEESIKIYPLIKPGSTVMLLGTPDANLISKPAKKNNFIEDLAPEQQVQQFAQLPVGFKNMGNTCYLNATLQALYRVNDLRDMILNYNPSQGVSNSGAQDEEIHKQIVIEMKRCFENLQNKSFKSVLPIVLLNTLRKCYPQFAERDSQGGFYKQQDAEELFTQLFHSMSIVFGDKFSEDFRIQFKTTIKDTANDNDITVKENESDSKLQCHISGTTNFMRNGLLEGLNEKIEKRSDLTGANSIYSVEKKISRLPKFLTVQYVRFFWKRSTNKKSKILRKVVFPFQLDVADMLTPEYAAEKVKVRDELRKVEKEKNEKEREIKRRKFDPSSSENVMTPREQYETQVALNESEKDQWLEEYKKHFPPNLEKGENPSCVYNLIGVITHQGANSESGHYQAFIRDELDENKWYKFNDDKVSVVEKEKIESLAGGGESDSALILMYKGFGL
For B5, the binding result in the assay with Rpn1 is “binds”.

These data come from article PMC3285539 (Nature, 2012).
